Reference: the supplement of paper PMC5998384

Key:
[1] = system: HeLa Kyoto; assay: solubility change mitosis vs G1/S (difference of NP-40 vs SDS log2 ratios) (log2 ratio difference); higher = more soluble in mitosis
[2] = system: HeLa Kyoto; assay: melting temperature (median over replicates), in situ; higher = more thermally stable
[3] = system: HeLa Kyoto; assay: solubility in G1/S (NP-40 vs SDS abundance) (log2 ratio); higher = more soluble; settings: cell cycle stage: G1/S
[4] = system: HeLa Kyoto; assay: thermal stability score vs G1/S (z-score of summed log2 fold changes over temperatures); higher = more thermally stable than in G1/S
[5] = cell cycle stage: early G1 (4.5 h after nocodazole release)
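Throughout, for melting temperature (median over replicates), in situ: HeLa Kyoto cells synchronized by double thymidine or nocodazole block, proteins quantified by TMT10plex mass spectrometry, three independent biological replicates.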
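Throughout, for solubility change mitosis vs G1/S (difference of NP-40 vs SDS log2 ratios): synchronized HeLa Kyoto cells (double thymidine block for G1/S, nocodazole release for mitosis), protein amounts in NP-40 versus SDS lysates quantified by mass spectrometry, three biological replicates.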
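Throughout, for solubility in G1/S (NP-40 vs SDS abundance): HeLa Kyoto cells arrested at G1/S by double thymidine block, proteins quantified by TMT10plex mass spectrometry in mild NP-40 versus SDS extracts, three biological replicates.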
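Throughout, for thermal stability score vs G1/S (z-score of summed log2 fold changes over temperatures): synchronized HeLa Kyoto cells, proteins quantified by TMT10plex mass spectrometry, three biological replicates, mitosis taken 0.5 h after nocodazole release, G1/S directly after double thymidine block.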

Substance | solubility change mitosis (log2) [1] | melting temperature ([2]; cell cycle stage: G1/S) [°C] | melting temperature ([2]; cell cycle stage: mitosis) [°C] | solubility in G1/S (log2) [3] | thermal stability score [4, 5] | thermal stability score ([4]; cell cycle stage: mitosis)
MHGRLKVKTSEEQAEAKRLEREQKLKLYQSATQAVFQKRQAGELDESVLELTSQILGANPDFATLWNCRREVLQQLETQKSPEELAALVKAELGFLESCLRVNPKSYGTWHHRCWLLGRLPEPNWTRELELCARFLEVDERNFHCWDYRRFVATQAAVPPAEELAFTDSLITRNFSNYSSWHYRSCLLPQLHPQPDSGPQGRLPEDVLLKELELVQNAFFTDPNDQSAWFYHRWLLGRADPQDALRCLHVSRDEACLTVSFSRPLLVGSRMEILLLMVDDSPLIVEWRTPDGRNRPSHVWLCDLPAASLNDQLPQHTFRVIWTAGDVQKECVLLKGRQEGWCRDSTTDEQLFRCELSVEKSTVLQSELESCKELQELEPENKWCLLTIILLMRALDPLLYEKETLQYFQTLKAVDPMRATYLDDLRSKFLLENSVLKMEYAEVRVLHLAHKDLTVLCHLEQLLLVTHLDLSHNRLRTLPPALAALRCLEVLQASDNAIESLDGVTNLPRLQELLLCNNRLQQPAVLQPLASCPRLVLLNLQGNPLCQAVGILEQLAELLPSVSSVLT [RABGGTA] | -0.067 | 53.8 | 53.3 | 0.0201 | -0.496 | -1.06
MAAAAASHLNLDALREVLECPICMESFTEEQLRPKLLHCGHTICRQCLEKLLASSINGVRCPFCSKITRITSLTQLTDNLTVLKIIDTAGLSEAVGLLMCRSCGRRLPRQFCRSCGLVLCEPCREADHQPPGHCTLPVKEAAEERRRDFGEKLTRLRELMGELQRRKAALEGVSKDLQARYKAVLQEYGHEERRVQDELARSRKFFTGSLAEVEKSNSQVVEEQSYLLNIAEVQAVSRCDYFLAKIKQADVALLEETADEEEPELTASLPRELTLQDVELLKVGHVGPLQIGQAVKKPRTVNVEDSWAMEATASAASTSVTFREMDMSPEEVVASPRASPAKQRGPEAASNIQQCLFLKKMGAKGSTPGMFNLPVSLYVTSQGEVLVADRGNYRIQVFTRKGFLKEIRRSPSGIDSFVLSFLGADLPNLTPLSVAMNCQGLIGVTDSYDNSLKVYTLDGHCVACHRSQLSKPWGITALPSGQFVVTDVEGGKLWCFTVDRGSGVVKYSCLCSAVRPKFVTCDAEGTVYFTQGLGLNLENRQNEHHLEGGFSIGSVGPDGQLGRQISHFFSENEDFRCIAGMCVDARGDLIVADSSRKEILHFPKGGGYSVLIREGLTCPVGIALTPKGQLLVLDCWDHCIKIYSYHLRRYSTP [TRIM32] | 0.0329 | 51.8 | 52.2 | -0.286 | 0.931 | 0.623
MKAFHTFCVVLLVFGSVSEAKFDDFEDEEDIVEYDDNDFAEFEDVMEDSVTESPQRVIITEDDEDETTVELEGQDENQEGDFEDADTQEGDTESEPYDDEEFEGYEDKPDTSSSKNKDPITIVDVPAHLQNSWESYYLEILMVTGLLAYIMNYIIGKNKNSRLAQAWFNTHRELLESNFTLVGDDGTNKEATSTGKLNQENEHIYNLWCSGRVCCEGMLIQLRFLKRQDLLNVLARMMRPVSDQVQIKVTMNDEDMDTYVFAVGTRKALVRLQKEMQDLSEFCSDKPKSGAKYGLPDSLAILSEMGEVTDGMMDTKMVHFLTHYADKIESVHFSDQFSGPKIMQEEGQPLKLPDTKRTLLFTFNVPGSGNTYPKDMEALLPLMNMVIYSIDKAKKFRLNREGKQKADKNRARVEENFLKLTHVQRQEAAQSRREEKKRAEKERIMNEEDPEKQRRLEEAALRREQKKLEKKQMKMKQIKVKAM [CCDC47] | 0.000886 | 52.9 | 52.7 | -0.0628 | 0.286 | -1.13
ATP13A1 | -0.00617 | 53.1 | 52.9 | -0.281 | -0.031 | -0.441
MDRMASSMKQVPNPLPKVLSRRGVGAGLEAAERESFERTQTVSINKAINTQEVAVKEKHARTCILGTHHEKGAQTFWSVVNRLPLSSNAVLCWKFCHVFHKLLRDGHPNVLKDSLRYRNELSDMSRMWGHLSEGYGQLCSIYLKLLRTKMEYHTKNPRFPGNLQMSDRQLDEAGESDVNNFFQLTVEMFDYLECELNLFQTVFNSLDMSRSVSVTAAGQCRLAPLIQVILDCSHLYDYTVKLLFKLHSCLPADTLQGHRDRFMEQFTKLKDLFYRSSNLQYFKRLIQIPQLPENPPNFLRASALSEHISPVVVIPAEASSPDSEPVLEKDDLMDMDASQQNLFDNKFDDIFGSSFSSDPFNFNSQNGVNKDEKDHLIERLYREISGLKAQLENMKTESQRVVLQLKGHVSELEADLAEQQHLRQQAADDCEFLRAELDELRRQREDTEKAQRSLSEIERKAQANEQRYSKLKEKYSELVQNHADLLRKNAEVTKQVSMARQAQVDLEREKKELEDSLERISDQGQRKTQEQLEVLESLKQELATSQRELQVLQGSLETSAQSEANWAAEFAELEKERDSLVSGAAHREEELSALRKELQDTQLKLASTEESMCQLAKDQRKMLLVGSRKAAEQVIQDALNQLEEPPLISCAGSADHLLSTVTSISSCIEQLEKSWSQYLACPEDISGLLHSITLLAHLTSDAIAHGATTCLRAPPEPADSLTEACKQYGRETLAYLASLEEEGSLENADSTAMRNCLSKIKAIGEELLPRGLDIKQEELGDLVDKEMAATSAAIETATARIEEMLSKSRAGDTGVKLEVNERILGCCTSLMQAIQVLIVASKDLQREIVESGRGTASPKEFYAKNSRWTEGLISASKAVGWGATVMVDAADLVVQGRGKFEELMVCSHEIAASTAQLVAASKVKADKDSPNLAQLQQASRGVNQATAGVVASTISGKSQIEETDNMDFSSMTLTQIKRQEMDSQVRVLELENELQKERQKLGELRKKHYELAGVAEGWEEGTEASPPTLQEVVTEKE [HIP1] | 0.0765 | 49.9 | 50.2 | 0.0989 | 0.173 | 1.11
MAVSAGSARTSPSSDKVQKDKAELISGPRQDSRIGKLLGFEWTDLSSWRRLVTLLNRPTDPASLAVFRFLFGFLMVLDIPQERGLSSLDRKYLDGLDVCRFPLLDALRPLPLDWMYLVYTIMFLGALGMMLGLCYRISCVLFLLPYWYVFLLDKTSWNNHSYLYGLLAFQLTFMDANHYWSVDGLLNAHRRNAHVPLWNYAVLRGQIFIVYFIAGVKKLDADWVEGYSMEYLSRHWLFSPFKLLLSEELTSLLVVHWGGLLLDLSAGFLLFFDVSRSIGLFFVSYFHCMNSQLFSIGMFSYVMLASSPLFCSPEWPRKLVSYCPRRLQQLLPLKAAPQPSVSCVYKRSRGKSGQKPGLRHQLGAAFTLLYLLEQLFLPYSHFLTQGYNNWTNGLYGYSWDMMVHSRSHQHVKITYRDGRTGELGYLNPGVFTQSRRWKDHADMLKQYATCLSRLLPKYNVTEPQIYFDIWVSINDRFQQRIFDPRVDIVQAAWSPFQRTSWVQPLLMDLSPWRAKLQEIKSSLDNHTEVVFIADFPGLHLENFVSEDLGNTSIQLLQGEVTVELVAEQKNQTLREGEKMQLPAGEYHKVYTTSPSPSCYMYVYVNTTELALEQDLAYLQELKEKVENGSETGPLPPELQPLLEGEVKGGPEPTPLVQTFLRRQQRLQEIERRRNTPFHERFFRFLLRKLYVFRRSFLMTCISLRNLILGRPSLEQLAQEVTYANLRPFEAVGELNPSNTDSSHSNPPESNPDPVHSEF [GGCX] | -0.054 | 53 | 53.1 | 0.0675 | -1.48 | -3.01
MSASGVLSFTQQGWEQVLAKVKRAVVYLDAACAESLHWGCGSTRLLEAVGGPDCHLREFEPDAIGGGAKQPKAVFVLSCLLKGRTVEILRDIICRSHFQYCVVVTTVSHAVHLTANHVPAAAAAEMEGQQPVFEQLEEKLCEWMGNMNYTAEVFHVPLLLAPVAPHFALTPAFASLFPLLPQDVHLLNSARPDKRKLGSLGDVDSTTLTPELLLQIRCLVSGLSSLCEHLGVREECFAVGSLSQVIAADLANYAPAKNRKKTAAGRASVVFVDRTLDLTGAVGHHGDNLVEKIISALPQLPGHTNDVMVNMIALTALHTEEENYNVVAPGCLSQSSDTTAKALWEALLNTKHKEAVMEVRRHLVEAASRENLPIKMSMGRVTPGQLMSYIQLFKNNLKALMNHCGLLQLGLATAQTLKHPQTAKWDNFLAFERLLLQSIGESAMSVVLNQLLPMIKPVTQRTNEDYSPEELLILLIYIYSVTGELTVDKDLCEAEEKVKKALAQVFCEESGLSPLLQKITDWDSSINLTFHKSKIAVDELFTSLRDIAGARSLLKQFKSVYVPGNHTHQASYKPLLKQVVEEIFHPERPDSVDIEHMSSGLTDLLKTGFSMFMKVSRPHPSDYPLLILFVVGGVTVSEVKMVKDLVASLKPGTQVIVLSTRLLKPLNIPELLFATDRLHPDLGF [SCFD2] | -0.0249 | 49.8 | 49.9 | -0.12 | -0.157 | 0.192
MDALNRNQIGPGCQTQTMVQKGPLDLIETGKGLKVQTDKPHLVSLGSGRLSTAITLLPLEEGRTVIGSAARDISLQGPGLAPEHCYIENLRGTLTLYPCGNACTIDGLPVRQPTRLTQGCMLCLGQSTFLRFNHPAEAKWMKSMIPAGGRAPGPPYSPVPAESESLVNGNHTPQTATRGPSACASHSSLVSSIEKDLQEIMDSLVLEEPGAAGKKPAATSPLSPMANGGRYLLSPPTSPGAMSVGSSYENTSPAFSPLSSPASSGSCASHSPSGQEPGPSVPPLVPARSSSYHLALQPPQSRPSGARSESPRLSRKGGHERPPSPGLRGLLTDSPAATVLAEARRATESPRLGGQLPVVAISLSEYPASGALSQPTSIPGSPKFQPPVPAPRNKIGTLQDRPPSPFREPPGSERVLTTSPSRQLVGRTFSDGLATRTLQPPESPRLGRRGLDSMRELPPLSPSLSRRALSPLPTRTTPDPKLNREVAESPRPRRWAAHGASPEDFSLTLGARGRRTRSPSPTLGESLAPHKGSFSGRLSPAYSLGSLTGASPCQSPCVQRKLSSGDLRVPVTRERKNSITEISDNEDDLLEYHRRQRQERLREQEMERLERQRLETILNLCAEYSRADGGPEAGELPSIGEATAALALAGRRPSRGLAGASGRSSEEPGVATQRLWESMERSDEENLKEECSSTESTQQEHEDAPSTKLQGEVLALEEERAQVLGHVEQLKVRVKELEQQLQESAREAEMERALLQGEREAERALLQKEQKAVDQLQEKLVALETGIQKERDKEAEALETETKLFEDLEFQQLERESRVEEERELAGQGLLRSKAELLRSIAKRKERLAILDSQAGQIRAQAVQESERLARDKNASLQLLQKEKEKLTVLERRYHSLTGGRPFPKTTSTLKEMEKLLLPAVDLEQWYQELMAGLGTGPAAASPHSSPPPLPAKASRQLQVYRSKMDGEATSPLPRTRSGPLPSSSGSSSSSSQLSVATLGRSPSPKSALLTQNGTGSLPRNLAATLQDIETKRQLALQQKGQQVIEEQRRRLAELKQKAAAEAQCQWDALHGAAPFPAGPSGFPPLMHHSILHHLPAGRERGEEGEHAYDTLSLESSDSMETSISTGGNSACSPDNMSSASGLDMGKIEEMEKMLKEAHAEKNRLMESREREMELRRQALEEERRRREQVERRLQSESARRQQLVEKEVKMREKQFSQARPLTRYLPIRKEDFDLKTHIESSGHGVDTCLHVVLSSKVCRGYLVKMGGKIKSWKKRWFVFDRLKRTLSYYVDKHETKLKGVIYFQAIEEVYYDHLRSAAKKRFFRFTMVTESPNPALTFCVKTHDRLYYMVAPSAEAMRIWMDVIVTGAEGYTQFMN [PHLDB1] | -0.13 | 50.8 | 51.1 | 0.0569 | 0.702 | 1.01
MAQADIALIGLAVMGQNLILNMNDHGFVVCAFNRTVSKVDDFLANEAKGTKVVGAQSLKEMVSKLKKPRRIILLVKAGQAVDDFIEKLVPLLDTGDIIIDGGNSEYRDTTRRCRDLKAKGILFVGSGVSGGEEGARYGPSLMPGGNKEAWPHIKTIFQGIAAKVGTGEPCCDWVGDEGAGHFVKMVHNGIEYGDMQLICEAYHLMKDVLGMAQDEMAQAFEDWNKTELDSFLIEITANILKFQDTDGKHLLPKIRDSAGQKGTGKWTAISALEYGVPVTLIGEAVFARCLSSLKDERIQASKKLKGPQKFQFDGDKKSFLEDIRKALYASKIISYAQGFMLLRQAATEFGWTLNYGGIALMWRGGCIIRSVFLGKIKDAFDRNPELQNLLLDDFFKSAVENCQDSWRRAVSTGVQAGIPMPCFTTALSFYDGYRHEMLPASLIQAQRDYFGAHTYELLAKPGQFIHTNWTGHGGTVSSSSYNA [PGD] | -0.184 | 54.4 | 54.4 | 0.123 | 1.53 | 0.62
